B1: IgG4 4784: monoclonal human anti-LINGO-1 IgG4 antibody; VL SEQ ID NO: 4, VH SEQ ID NO: 5 (antibody, V domains shown)
VH: QVQLKESGPALVKPTQTLTLTCTFSGFSLSSSGVGVGWIRQPPGKALEWLAHIGSDDDKYYSTSLKTRLTISKDTSKNQVVLTMTNMDPVDTATYYCARNQQYGDGYPGYFDYWGQGTLVTVSS
VL: DIELTQPPSVSVAPGQTARISCSGDNIGNYYVYWYQQKPGQAPVLVIYEDTNRPSGIPERFSGSNSGNTATLTISGTQAEDEADYYCQSYDNLHEQVFGGGTKLTVLG
modifications: IgG4; 4784 VH; 4784 VL
B2: IgG4 4785: monoclonal human anti-LINGO-1 IgG4 antibody; VL SEQ ID NO: 6, VH SEQ ID NO: 7 (antibody, V domains shown)
VH: QVQLQQSGPGLVKPSQTLSLTCAISGDSVSDNSAAWSWIRQSPGRGLEWLGLIYLRSKWDNDYAVSVKSRITINPDTSKNQFSLQLNSVTPEDTAVYYCARTGRADEFDVWGQGTLVTVSS
VL: DIVLTQPPSVSGAPGQRVTISCSGSSSNIGNNYVSWYQQLPGTAPKLLISRNSKRPSGVPDRFSGSKSGTSASLAITGLQSEDEADYYCSTYDTFSIVFGGGTKLTVLG
modifications: IgG4; 4785 VH; 4785 VL

Tested on: freshly isolated rat OPCs
Test: Primary oligodendrocyte differentiation assay
Type: cell-based
Conditions: 100 nM IgG4, 3 days in DMEM/CNTF/T3 medium; three independent experiments (FIG. 5)
Description: A) Freshly isolated OPCs are treated with 100 nM 4784, 4785 or control IgG4 3207 for 3 days in DMEM/CNTF/T3 medium followed by staining with the anti-04 antibody to visualise immature and mature oligodendrocytes (larger, more diffuse labeling) and the nucleic acid dye DAPI (4′,6-diamidin-2′-phenyl-indol-dihydrochloride) to visualise cell nuclei (smaller circular dots). Oligodendrocytes bearing highly arborised and extended processes and myelin sheet-like structures are considered to have a mature morphology and are indicated with white arrows. Anti-LINGO-1 antibody treatment results in an increase in the proportion of O4-positive cells with a mature morphology whereas treatment with control IgG4 3207 has no effect.
B) The proportion of total (left graph) and mature (right graph) oligodendrocytes is quantified in three independent experiments (1, 2, 3). The left bar graph depicts the percentage of DAPI-stained nuclei associated with O4-staining and the right bar graph depicts the percentage of O4-positive cells with a mature morphology (mean of triplicates+STD). […]
Enriched populations of OPCs are isolated from OFA P3 rats. […] To assess the purity of the cultures with respect to the oligodendrocyte lineage, the percentage of cells that are stained with the anti-04 antibody is quantified after 7 days of culture in SATO medium. […]

Row | Molecule | proportion of oligodendrocytes (O4-positive cells) with a mature morphology
1 | B1 | significantly increase
2 | B2 | significantly increase

From patent US20130071400A1, “LINGO binding molecules and Pharmaceutical Use Thereof” (NOVARTIS AG, priority 2006, published 2013)
